Data on 17 molecules can be found in patent publication US20140127212A1 (AstraZeneca / MedImmune, published 2014).

The target of test [1] is T1, cynomolgus IgE (recombinant chimaeric D12 variable region and cynomolgus IgE constant region) (cynomolgus monkey (constant region); …). As to the kind of experiment: cell-based or functional assay.
The target of test [2] is T1, cynomolgus IgE (recombinant chimaeric …). Put plainly: SPR BIAcore; IgG captured on protein G', IgE analyte, bivalent analyte fit; geomean.
Test [3] shares this target. As to the kind of experiment: HTRF competition; scFv titrated vs Eu-cryptate cynomolgus IgE binding to human FcεRI-Fc; geomean.
A further test deals with MOv18 IgE. As to the kind of experiment: cell-based or functional assay.

T1 sequence (heavy, as listed by the source limits assumed, chain 1 of 2): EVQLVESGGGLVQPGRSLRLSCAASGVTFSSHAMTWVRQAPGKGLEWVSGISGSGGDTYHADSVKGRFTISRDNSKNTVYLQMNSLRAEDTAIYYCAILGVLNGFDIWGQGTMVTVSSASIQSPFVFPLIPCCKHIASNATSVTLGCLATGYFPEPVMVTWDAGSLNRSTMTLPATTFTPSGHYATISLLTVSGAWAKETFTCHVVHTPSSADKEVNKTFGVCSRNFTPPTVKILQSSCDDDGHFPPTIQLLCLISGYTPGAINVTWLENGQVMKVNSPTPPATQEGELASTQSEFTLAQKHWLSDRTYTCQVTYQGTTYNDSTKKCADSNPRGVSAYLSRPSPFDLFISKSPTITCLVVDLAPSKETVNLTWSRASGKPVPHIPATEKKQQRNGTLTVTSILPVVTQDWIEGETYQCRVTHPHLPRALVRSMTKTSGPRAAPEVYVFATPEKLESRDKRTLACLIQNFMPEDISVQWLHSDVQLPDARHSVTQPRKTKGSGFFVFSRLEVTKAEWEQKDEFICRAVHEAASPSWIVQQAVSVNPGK
T1 sequence (light, as listed by the source limits assumed, chain 2 of 2): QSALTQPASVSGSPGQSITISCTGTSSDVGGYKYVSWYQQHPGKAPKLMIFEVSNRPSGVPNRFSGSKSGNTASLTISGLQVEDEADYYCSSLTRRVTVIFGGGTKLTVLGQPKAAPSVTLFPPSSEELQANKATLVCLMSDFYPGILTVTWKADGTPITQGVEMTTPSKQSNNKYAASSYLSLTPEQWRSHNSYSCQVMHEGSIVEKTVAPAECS

B1: Antibody 4 IgG (antibody, V domains shown)
VH: QVQLVQSGAEVKKPGATVKLSCKVYGYIFTDYNIYWVRQAPGKGLEWMGLIDPDNGETFYAEKFQGRATMTADTSSDRAYMELTSLTFEDTATYYCATVMGKWIKGGYDYWGRGTLVTVSS
VL: QSVLTQPPSVSGAPGQRVTISCTGSSSNIGAGYDVHWYQQLPGTAPKLLIYDNFNRPSGVPDRFSGSKSGTSASLAIIGLQTEDEADYYCQSYDSRGGHSPFGTGTKLTVL
notes: Whole human IgG (section 1.4, IgG1)
For B1, the “RBL-ER51 calcium signalling IC50 (nM), Cynomolgus IgE, geomean” value (shortened to “RBL-ER51 calcium signalling IC50 (nM)”) in test [1] stood at 0.151 nM. For the same molecule, in test [2], the Kd stood at 8 nM.

B2: Antibody 18 IgG (antibody, V domains shown)
VH: QVQLVQSGAEVKKPGATVKLSCKVYGYIFTDYNIYWVRQAPGKGLEWMGLIDPDNGETFYAEKFQGRATMTADTSSDRAYMELTSLTFEDTATYYCATVLLRSAKGGYDYWGRGTLVTVSS
VL: QSVLTQPPSVSGAPGQRVTISCTGSSSNIGAGYDVHWYQQLPGTAPKLLIYDNFNRPSGVPDRFSGSKSGTSASLAIIGLQTEDEADYYCQSYDSHLQLSPFGTGTKLTVL
As to B2, the “RBL-ER51 calcium signalling IC50 (nM)” value in test [1] was 2.97 nM.

B3: Antibody 26 scFv (scFv, V domains shown, not shown: small tags and cut ends)
VH: QVQLVQSGAEVKKPGATVKLSCKVYGYIFTDYNIYWVRQAPGKGLEWMGLIDPDNGETFYAEKFQGRATMTADTSSDRAYMELTSLTFEDTATYYCATVSLKEAKGGYDYWGRGTLVTVSS
VL: QSVLTQPPSVSGAPGQRVTISCTGSSSNIGAGYDVHWYQQLPGTAPKLLIYDNFNRPSGVPDRFSGSKSGTSASLAIIGLQTEDEADYYCQSYDSASRHAPFGTGTKLTVL
notes: Purified scFv
As to B3, the IC50 – broadly, the concentration that inhibits the measured activity by half – in test [3] was determined as 121 nM.

B4: Antibody 12 IgG (antibody, V domains shown)
VH: QVQLVQSGAEVKKPGATVKLSCKVYGYIFTDYNIYWVRQAPGKGLEWMGLIDPDNGETFYAEKFQGRATMTADTSSDRAYMELTSLTFEDTATYYCATVMGKWIKGGYDYWGRGTLVTVSS
VL: QSVLTQPPSVSGAPGQRVTISCTGSSSNIGAGYDVHWYQQLPGTAPKLLIYDNFNRPSGVPDRFSGSKSGTSASLAIIGLQTEDEADYYCQSYDSSIDHSPFGTGTKLTVL
notes: as for B1
Take B4: the “RBL-ER51 calcium signalling IC50 (nM)” value in test [1] amounted to 0.334 nM. Moreover, the Kd in test [2] is 230 nM.

B5: Antibody 20 IgG (antibody, V domains shown)
VH: QVQLVQSGAEVKKPGATVKLSCKVYGYIFTDYNIYWVRQAPGKGLEWMGLIDPDNGETFYAEKFQGRATMTADTSSDRAYMELTSLTFEDTATYYCATVMGKWIKGGYDYWGRGTLVTVSS
VL: QSVLTQPPSVSGAPGQRVTISCTGSSSNIGAGYDVHWYQQLPGTAPKLLIYDNFNRPSGVPDRFSGSKSGTSASLAIIGLQTEDEADYYCQSYDSSTSSSPFGTGTKLTVL
notes: as for B1
Take B5: in test [1], the “RBL-ER51 calcium signalling IC50 (nM)” value amounted to 0.31 nM. Moreover, the Kd in test [2] was determined as 10.5 nM.

B6: Antibody 19 IgG (antibody, V domains shown)
VH: QVQLVQSGAEVKKPGATVKLSCKVYGYIFTDYNIYWVRQAPGKGLEWMGLIDPDNGETFYAEKFQGRATMTADTSSDRAYMELTSLTFEDTATYYCATVMGKWIKGGYDYWGRGTLVTVSS
VL: QSVLTQPPSVSGAPGQRVTISCTGSSSNIGAGYDVHWYQQLPGTAPKLLIYDNFNRPSGVPDRFSGSKSGTSASLAIIGLQTEDEADYYCQSYDSTLSHSPFGTGTKLTVL
notes: as for B1
With B6, the “RBL-ER51 calcium signalling IC50 (nM)” value in test [1] worked out at 0.111 nM. For the same molecule, the Kd in test [2] turned out to be 7.9 nM.

B7: Antibody 13 IgG (antibody, V domains shown)
VH: QVQLVQSGAEVKKPGATVKLSCKVYGYIFTDYNIYWVRQAPGKGLEWMGLIDPDNGETFYAEKFQGRATMTADTSSDRAYMELTSLTFEDTATYYCATVMGKWIKGGYDYWGRGTLVTVSS
VL: QSVLTQPPSVSGAPGQRVTISCTGSSSNIGAGYDVHWYQQLPGTAPKLLIYDNFNRPSGVPDRFSGSKSGTSASLAIIGLQTEDEADYYCQSYDSNILYSPFGTGTKLTVL
notes: as for B1
As for B7, in test [1], the “RBL-ER51 calcium signalling IC50 (nM)” value turned out to be 0.244 nM. The Kd in test [2] is 9.9 nM.

B8: Antibody 16 IgG (antibody, V domains shown)
VH: QVQLVQSGAEVKKPGATVKLSCKVYGYIFTDYNIYWVRQAPGKGLEWMGLIDPDNGETFYAEKFQGRATMTADTSSDRAYMELTSLTFEDTATYYCATVSLKSAKGGYDYWGRGTLVTVSS
VL: QSVLTQPPSVSGAPGQRVTISCTGSSSNIGAGYDVHWYQQLPGTAPKLLIYDNFNRPSGVPDRFSGSKSGTSASLAIIGLQTEDEADYYCQSYDSRHHHAPFGTGTKLTVL
notes: as for B1
Consider B8, for which the “RBL-ER51 calcium signalling IC50 (nM)” value in test [1] turned out to be 4.38 nM. In test [2], the Kd was found to be 62 nM.

B9: Antibody 11 IgG (antibody, V domains shown)
VH: QVQLVQSGAEVKKPGATVKLSCKVYGYIFTDYNIYWVRQAPGKGLEWMGLIDPDNGETFYAEKFQGRATMTADTSSDRAYMELTSLTFEDTATYYCATVMGKWIKGGYDYWGRGTLVTVSS
VL: QSVLTQPPSVSGAPGQRVTISCTGSSSNIGAGYDVHWYQQLPGTAPKLLIYDNFNRPSGVPDRFSGSKSGTSASLAIIGLQTEDEADYYCQSYDSPTLTSPFGTGTKLTVL
notes: as for B1
As for B9, the “RBL-ER51 calcium signalling IC50 (nM)” value in test [1] stood at 0.153 nM. Further, the “IC50 (read off the curve), IgE/FcεRI-mediated cytotoxicity” value with MOv18 IgE is roughly 0.1 nM. Besides, in test [2], the Kd was found to be 9.3 nM.

B10: Antibody 28 scFv (scFv, V domains shown, not shown: small tags and cut ends)
VH: QVQLVQSGAEVKKPGATVKLSCKVYGYIFTDYNIYWVRQAPGKGLEWMGLIDPDNGETFYAEKFQGRATMTADTSSDRAYMELTSLTFEDTATYYCATVMGKWIKGGYDYWGRGTLVTVSS
VL: QSVLTQPPSVSGAPGQRVTISCTGSSSNIGAGYDVHWYQQLPGTAPKLLIYDNFNRPSGVPDRFSGSKSGTSASLAIIGLQTEDEADYYCQSYDSSSLHSPFGTGTKLTVL
notes: Purified scFv
In the case of B10, the IC50 in test [3] is 7 nM.

B11: Antibody 6 IgG (antibody, V domains shown)
VH: QVQLVQSGAEVKKPGATVKLSCKVYGYIFTDYNIYWVRQAPGKGLEWMGLIDPDNGETFYAEKFQGRATMTADTSSDRAYMELTSLTFEDTATYYCATVMGKWIKGGYDYWGRGTLVTVSS
VL: QSVLTQPPSVSGAPGQRVTISCTGSSSNIGAGYDVHWYQQLPGTAPKLLIYDNFNRPSGVPDRFSGSKSGTSASLAIIGLQTEDEADYYCQSYDSTMRHGPFGTGTKLTVL
notes: as for B1
For B11, the “RBL-ER51 calcium signalling IC50 (nM)” value in test [1] was found to be 0.168 nM. For the same molecule, the Kd in test [2] was determined as 3.7 nM.

B12: Antibody 5 IgG (antibody, V domains shown)
VH: QVQLVQSGAEVKKPGATVKLSCKVYGYIFTDYNIYWVRQAPGKGLEWMGLIDPDNGETFYAEKFQGRATMTADTSSDRAYMELTSLTFEDTATYYCATVMGKWIKGGYDYWGRGTLVTVSS
VL: QSVLTQPPSVSGAPGQRVTISCTGSSSNIGAGYDVHWYQQLPGTAPKLLIYDNFNRPSGVPDRFSGSKSGTSASLAIIGLQTEDEADYYCQSYDSTKHTSPFGTGTKLTVL
notes: as for B1
B12: the “RBL-ER51 calcium signalling IC50 (nM)” value in test [1] came out at 0.181 nM. Moreover, in test [2], the Kd worked out at 7.9 nM.

B13: Antibody 25 scFv (scFv, V domains shown, not shown: small tags and cut ends)
VH: QVQLVQSGAEVKKPGATVKLSCKVYGYIFTDYNIYWVRQAPGKGLEWMGLIDPDNGETFYAEKFQGRATMTADTSSDRAYMELTSLTFEDTATYYCATVTLKSAKGGYDYWGRGTLVTVSS
VL: QSVLTQPPSVSGAPGQRVTISCTGSSSNIGAGYDVHWYQQLPGTAPKLLIYDNFNRPSGVPDRFSGSKSGTSASLAIIGLQTEDEADYYCQSYDSNHKTSPFGTGTKLTVL
notes: Purified scFv
With B13, in test [3], the IC50 is 86 nM.

B14: Antibody 23 IgG (antibody, V domains shown)
VH: QVQLVQSGAEVKKPGATVKLSCKVYGYIFTDYNIYWVRQAPGKGLEWMGLIDPDNGETFYAEKFQGRATMTADTSSDRAYMELTSLTFEDTATYYCATVMGKWIKGGYDYWGRGTLVTVSS
VL: QSVLTQPPSVSGAPGQRVTISCTGSSSNIGAGYDVHWYQQLPGTAPKLLIYDNFNRPSGVPDRFSGSKSGTSASLAIIGLQTEDEADYYCQSYDSHHLYSSFGTGTKLTVL
notes: as for B1
Consider B14, for which the “RBL-ER51 calcium signalling IC50 (nM)” value in test [1] came out at 0.523 nM. In addition, the Kd in test [2] stood at 4.3 nM.

B15: Antibody 8 IgG (antibody, V domains shown)
VH: QVQLVQSGAEVKKPGATVKLSCKVYGYIFTDYNIYWVRQAPGKGLEWMGLIDPDNGETFYAEKFQGRATMTADTSSDRAYMELTSLTFEDTATYYCATVLGRWIKGGYDYWGRGTLVTVSS
VL: QSVLTQPPSVSGAPGQRVTISCTGSSSNIGAGYDVHWYQQLPGTAPKLLIYDNFNRPSGVPDRFSGSKSGTSASLAIIGLQTEDEADYYCQSYDSPTHTSPFGTGTKLTVL
notes: as for B1
With B15, the “RBL-ER51 calcium signalling IC50 (nM)” value in test [1] came out at 0.188 nM. The Kd in test [2] was found to be 6.3 nM.

B16: Antibody 28 IgG (antibody, V domains shown)
VH: QVQLVQSGAEVKKPGATVKLSCKVYGYIFTDYNIYWVRQAPGKGLEWMGLIDPDNGETFYAEKFQGRATMTADTSSDRAYMELTSLTFEDTATYYCATVMGKWIKGGYDYWGRGTLVTVSS
VL: QSVLTQPPSVSGAPGQRVTISCTGSSSNIGAGYDVHWYQQLPGTAPKLLIYDNFNRPSGVPDRFSGSKSGTSASLAIIGLQTEDEADYYCQSYDSSSLHSPFGTGTKLTVL
notes: as for B1
With B16, the “RBL-ER51 calcium signalling IC50 (nM)” value in test [1] is 0.253 nM. The Kd in test [2] was 7.2 nM.

B17: Antibody 27 scFv (scFv, V domains shown, not shown: small tags and cut ends)
VH: QVQLVQSGAEVKKPGATVKLSCKVYGYIFTDYNIYWVRQAPGKGLEWMGLIDPDNGETFYAEKFQGRATMTADTSSDRAYMELTSLTFEDTATYYCATVSLKEAKGGYDYWGRGTLVTVSS
VL: QSVLTQPPSVSGAPGQRVTISCTGSSSNIGAGYDVHWYQQLPGTAPKLLIYDNFNRPSGVPDRFSGSKSGTSASLAIIGLQTEDEADYYCQSYDSPTQTSPFGTGTKLTVL
notes: Purified scFv
On to B17, for which, in test [3], the half-inhibitory concentration (IC50) turned out to be 117 nM.
